Data published in patent US8927500.
Bridges are numbered along the chain shown (N, C = ends). [ ]: non-standard residue; d: D form. pY = N[C@@H](Cc1ccc(OP(=O)(O)O)cc1)C(=O)O; R8 = C=CCCCCCC[C@@](C)(N)C(=O)O; hLeu = CC(C)CC[C@H](N)C(=O)O; S5 = C=CCCC[C@](C)(N)C(=O)O; Cou6 = not defined here; Cou8 = not defined here; βAla = NCCC(=O)O

B1: SP447 (peptide)
peptide: Cou8-[βAla]LTF[R8]EYWAQ[hLeu][S5]SAA-NH2
modifications: staple 5-12; reading uncertain
B2: peptidomimetic macrocycle SP615, Ac-LTF$r8EpYWAQL$AAAAAa-NH2 (peptide)
peptide: Ac-LTF[R8]E[pY]WAQL[S5]AAAAA[dA]-NH2
modifications: staple 4-11
B3: SP446 (peptide)
peptide: Cou6-[βAla]LTF[R8]EYWAQ[hLeu][S5]SAA-NH2
modifications: staple 5-12; reading uncertain
B4: SP560 (peptide)
peptide: Ac-LTA[R8]EYWAQL[S5]AAAAA[dA]-NH2
modifications: staple 4-11

Tests used:
[1] = molecular target: T1, MDMX (In-house, 40 kD), O15151; experiment: competitive FP vs FAM-labelled linear peptide; grade + = greater than 1000 nM; settings: remark: other sources report otherwise
T1 chain: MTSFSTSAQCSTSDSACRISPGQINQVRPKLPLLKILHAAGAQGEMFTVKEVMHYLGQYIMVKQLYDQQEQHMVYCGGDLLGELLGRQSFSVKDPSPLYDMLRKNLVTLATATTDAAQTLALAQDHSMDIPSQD

[2] = molecular target: MDM2 (In-house, 41 kD) (UniProt Q00987); experiment: competitive fluorescence polarization, MDM2 with FAM-labeled linear peptide; graded scale of paragraph 458
[3] = molecular target: T2, MDMX (In-house, 40 kD) (UniProt O15151); experiment: competitive fluorescence polarization, MDMX with FAM-labeled linear peptide; graded scale of paragraph 458
T2 sequence (looked up): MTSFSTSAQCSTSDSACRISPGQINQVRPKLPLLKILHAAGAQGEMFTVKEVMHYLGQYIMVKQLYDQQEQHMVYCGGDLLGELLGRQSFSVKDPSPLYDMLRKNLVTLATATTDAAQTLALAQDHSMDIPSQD

[4] = molecular target: MDM2 (In-house, 41 kD), Q00987; experiment: competitive FP vs FAM-labelled linear peptide; grade + = greater than 1000 nM; settings: remark: other sources report otherwise
Sequence of MDM2 (In-house, 41 kD), Q00987 (Q00987 1-138 limits assumed): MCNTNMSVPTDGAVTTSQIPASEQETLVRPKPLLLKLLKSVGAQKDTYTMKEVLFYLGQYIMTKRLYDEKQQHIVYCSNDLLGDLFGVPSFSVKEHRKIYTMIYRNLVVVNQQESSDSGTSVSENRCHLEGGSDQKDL

Sequence of MDM2 (In-house, 41 kD) (Q00987 1-138 limits assumed): as above

Binder | IC50 [1] [nM] | Ki [1] [nM] | Ki [2] [nM] | Ki [3] [nM] | Ki [4] [nM]
B1 | > 1000 | > 1000 |  |  | 
B2 |  |  | < 10 | < 10 | 
B3 | > 1000 | > 1000 |  |  | 
B4 |  | > 1000 |  |  | > 1000
